Data from paper PMC7832040 (Science translational medicine, 2020).

Columns and labels:
[1] = target: endogenous CD206 in murine M2-polarized macrophages (BMDMs) (mouse (endogenous in M2 BMDMs)) (UniProt Q61830); experiment: cellular thermal shift assay
[2] = target: endogenous CD206 in human M2-polarized macrophages (human (endogenous in M2-polarized macrophages)) (UniProt P22897); experiment: cellular thermal shift assay
[3] = target: mannose receptor CD206, human, recombinant (human) (UniProt P22897); experiment: MST
murine CD206 (murine) = murine CD206 (murine) (UniProt Q61830); experiment: MST
CD206 = target: T1, CD206 (Homo sapiens, UniProt P22897); conditions: xenotransplanted tumors; ref [39]–[41]; cited from earlier work
T1 sequence (P22897 19-1456): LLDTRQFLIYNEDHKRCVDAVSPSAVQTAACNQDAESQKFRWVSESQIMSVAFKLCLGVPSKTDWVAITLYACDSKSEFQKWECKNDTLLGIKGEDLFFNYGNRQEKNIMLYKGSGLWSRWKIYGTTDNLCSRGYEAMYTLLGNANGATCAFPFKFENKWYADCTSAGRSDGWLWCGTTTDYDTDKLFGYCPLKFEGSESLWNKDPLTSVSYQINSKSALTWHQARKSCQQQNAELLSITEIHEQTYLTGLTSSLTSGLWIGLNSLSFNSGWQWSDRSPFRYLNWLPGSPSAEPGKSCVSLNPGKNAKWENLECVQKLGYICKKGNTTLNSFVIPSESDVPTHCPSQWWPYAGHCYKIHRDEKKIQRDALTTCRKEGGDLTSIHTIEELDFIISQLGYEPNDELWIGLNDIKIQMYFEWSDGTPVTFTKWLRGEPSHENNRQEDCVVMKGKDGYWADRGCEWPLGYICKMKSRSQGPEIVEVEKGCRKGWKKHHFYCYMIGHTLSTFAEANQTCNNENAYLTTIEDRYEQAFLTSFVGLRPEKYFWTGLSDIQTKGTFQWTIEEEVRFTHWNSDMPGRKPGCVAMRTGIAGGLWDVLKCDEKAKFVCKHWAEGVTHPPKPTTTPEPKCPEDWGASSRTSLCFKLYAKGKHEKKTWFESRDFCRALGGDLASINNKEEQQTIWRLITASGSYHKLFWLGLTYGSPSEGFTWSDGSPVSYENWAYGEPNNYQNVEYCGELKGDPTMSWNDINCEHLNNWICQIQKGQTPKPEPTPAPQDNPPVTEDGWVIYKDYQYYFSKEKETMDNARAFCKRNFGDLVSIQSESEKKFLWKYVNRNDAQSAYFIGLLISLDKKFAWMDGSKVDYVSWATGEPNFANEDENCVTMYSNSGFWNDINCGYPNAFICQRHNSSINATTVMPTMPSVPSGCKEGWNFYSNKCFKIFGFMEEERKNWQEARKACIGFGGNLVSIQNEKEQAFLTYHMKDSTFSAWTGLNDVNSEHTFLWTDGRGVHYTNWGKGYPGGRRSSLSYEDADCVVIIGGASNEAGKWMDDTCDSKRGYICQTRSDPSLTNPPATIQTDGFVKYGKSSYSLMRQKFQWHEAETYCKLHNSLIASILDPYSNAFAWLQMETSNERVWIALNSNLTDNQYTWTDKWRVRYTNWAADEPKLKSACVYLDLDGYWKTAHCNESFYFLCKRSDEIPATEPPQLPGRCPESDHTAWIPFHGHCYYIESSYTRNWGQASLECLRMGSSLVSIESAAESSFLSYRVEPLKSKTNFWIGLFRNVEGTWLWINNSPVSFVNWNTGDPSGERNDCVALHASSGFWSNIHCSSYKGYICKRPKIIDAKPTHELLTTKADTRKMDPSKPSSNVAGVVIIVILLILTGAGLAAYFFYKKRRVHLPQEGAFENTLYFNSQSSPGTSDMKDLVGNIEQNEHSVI

Sequence of murine CD206 (murine) (Q61830 20-1456): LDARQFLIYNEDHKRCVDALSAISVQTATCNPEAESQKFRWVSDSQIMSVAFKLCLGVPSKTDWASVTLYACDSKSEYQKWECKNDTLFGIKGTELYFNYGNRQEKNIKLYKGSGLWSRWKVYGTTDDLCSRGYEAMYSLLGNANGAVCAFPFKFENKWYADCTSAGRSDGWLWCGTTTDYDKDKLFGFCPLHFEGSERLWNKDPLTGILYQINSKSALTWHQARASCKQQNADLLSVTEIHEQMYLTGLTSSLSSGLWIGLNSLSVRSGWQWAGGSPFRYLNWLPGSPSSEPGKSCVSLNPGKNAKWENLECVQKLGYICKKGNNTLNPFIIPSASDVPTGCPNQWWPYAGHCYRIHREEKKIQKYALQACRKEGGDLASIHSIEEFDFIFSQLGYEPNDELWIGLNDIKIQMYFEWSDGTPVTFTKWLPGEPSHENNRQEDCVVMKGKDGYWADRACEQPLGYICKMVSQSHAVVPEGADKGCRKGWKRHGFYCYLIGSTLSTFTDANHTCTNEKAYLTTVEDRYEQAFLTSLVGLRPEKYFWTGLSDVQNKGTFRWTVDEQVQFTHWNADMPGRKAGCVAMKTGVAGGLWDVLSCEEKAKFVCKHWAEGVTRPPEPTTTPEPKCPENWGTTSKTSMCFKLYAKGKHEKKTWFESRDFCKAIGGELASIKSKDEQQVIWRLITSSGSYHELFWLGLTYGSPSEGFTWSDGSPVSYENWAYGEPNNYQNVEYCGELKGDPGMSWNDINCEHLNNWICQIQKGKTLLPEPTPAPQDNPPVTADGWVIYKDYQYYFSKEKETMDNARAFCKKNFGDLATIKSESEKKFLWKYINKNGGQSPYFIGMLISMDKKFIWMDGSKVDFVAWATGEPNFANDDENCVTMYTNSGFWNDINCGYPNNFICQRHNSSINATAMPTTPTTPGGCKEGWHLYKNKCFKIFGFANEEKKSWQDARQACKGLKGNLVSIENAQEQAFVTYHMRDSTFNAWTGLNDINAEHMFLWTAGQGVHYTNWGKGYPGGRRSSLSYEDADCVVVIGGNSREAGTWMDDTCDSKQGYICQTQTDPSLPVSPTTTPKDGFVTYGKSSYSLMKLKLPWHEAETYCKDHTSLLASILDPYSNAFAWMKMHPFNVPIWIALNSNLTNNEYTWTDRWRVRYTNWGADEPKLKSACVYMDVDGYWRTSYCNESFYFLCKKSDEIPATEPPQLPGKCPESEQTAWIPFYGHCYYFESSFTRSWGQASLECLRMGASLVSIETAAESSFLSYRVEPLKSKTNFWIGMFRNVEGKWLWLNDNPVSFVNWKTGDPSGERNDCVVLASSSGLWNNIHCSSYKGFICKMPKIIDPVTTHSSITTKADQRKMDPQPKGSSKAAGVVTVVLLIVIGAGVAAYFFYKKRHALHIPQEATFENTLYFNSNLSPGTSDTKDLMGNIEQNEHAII
Sequence of endogenous CD206 in murine M2-polarized macrophages (BMDMs) (mouse (endogenous in M2 BMDMs)) (Q61830 20-1456): as above

Row | thermostability shift of CD206 (CETSA) [1] | thermostability shift of CD206 (CETSA) [2] | Kd [3] | Kd (murine CD206 (murine)) | Substance | delivery of nanoparticles to tumors (CD206)
1 | > 4 ° | > 4 ° | 8 µM | 19 µM | RP-182 (peptide) | 
2 |  |  |  |  | CSPGAKVRC [UNO] | able to carry drug-loaded nanoparticles targeting CD206 into xenotransplanted tumors
